According to the supplement of paper PMC11316812:
± gives the standard deviation of the averaged measurements.

Assays:
[1] = tested on: MCF7; experiment: percentage of EdU-negative (G0-arrested) nuclei per well, 72 h; higher = more G0 arrest; conditions: reference: sequence is the full UniProt precursor, the tested protein was the secreted form or ectodomain
[2] = tested on: hTERT-HMEC; experiment: as above; conditions: reference: sequence is the full UniProt precursor, the tested protein was the secreted form or ectodomain
[3] = protein concentration 0.0225 µM
[4] = protein concentration 0.03125 µM
[5] = protein concentration 0.3125 µM
[6] = protein concentration 0.0231125 µM
[7] = protein concentration 0.231125 µM
[8] = protein concentration 0.0257143 µM
[9] = protein concentration 0.257143 µM
[10] = protein concentration 0.020715 µM
[11] = protein concentration 0.20715 µM
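Further: secreted proteins added to cultured cells, EdU pulse at the end, nuclei found by Hoechst imaging, EdU status from nuclear versus surrounding ring intensity ratio, PBS as neutral control.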

Sequence | percentage of EdU-negative [1, 3] [%] | percentage of EdU-negative ([1]; protein concentration 0.225 µM) [%] | percentage of EdU-negative [2, 3] [%] | percentage of EdU-negative ([2]; protein concentration 0.225 µM) [%] | also measured
MALPSLLLLVAALAGGVRPPGARNLTLAVVLPEHNLSYAWAWPRVGPAVALAVEALGRALPVDLRFVSSELEGACSEYLAPLSAVDLKLYHDPDLLLGPGCVYPAASVARFASHWRLPLLTAGAVASGFSAKNDHYRTLVRTGPSAPKLGEFVVTLHGHFNWTARAALLYLDARTDDRPHYFTIEGVFEALQGSNLSVQHQVYAREPGGPEQATHFIRANGRIVYICGPLEMLHEILLQAQRENLTNGDYVFFYLDVFGESLRAGPTRATGRPWQDNRTREQAQALREAFQTVLVITYREPPNPEYQEFQNRLLIRAREDFGVELGPSLMNLIAGCFYDGILLYAEVLNETIQEGGTREDGLRIVEKMQGRRYHGVTGLVVMDKNNDRETDFVLWAMGDLDSGDFQPAAHYSGAEKQIWWTGRPIPWVKGAPPSDNPPCAFDLDDPSCDKTPLSTLAIVALGTGITFIMFGVSSFLIFRKLMLEKELASMLWRIRWEELQFGNSERYHKGAGSRLTLSLRGSSYGSLMTAHGKYQIFANTGHFKGNVVAIKHVNKKRIELTRQVLFELKHMRDVQFNHLTRFIGACIDPPNICIVTEYCPRGSLQDILENDSINLDWMFRYSLINDLVKGMAFLHNSIISSHGSLKSSNCVVDSRFVLKITDYGLASFRSTAEPDDSHALYAKKLWTAPELLSGNPLPTTGMQKADVYSFGIILQEIALRSGPFYLEGLDLSPKEIVQKVRNGQRPYFRPSIDRTQLNEELVLLMERCWAQDPAERPDFGQIKGFIRRFNKEGGTSILDNLLLRMEQYANNLEKLVEERTQAYLEEKRKAEALLYQILPHSVAEQLKRGETVQAEAFDSVTIYFSDIVGFTALSAESTPMQVVTLLNDLYTCFDAIIDNFDVYKVETIGDAYMVVSGLPGRNGQRHAPEIARMALALLDAVSSFRIRHRPHDQLRLRIGVHTGPVCAGVVGLKMPRYCLFGDTVNTASRMESNGQALKIHVSSTTKDALDELGCFQLELRGDVEMKGKGKMRTYWLLGERKGPPGLL | 28 ± 1 | 28.8 ± 1.5 | 4.62 ± 0.46 | 6.68 ± 1.3 | 
MDSYLLMWGLLTFIMVPGCQAELCDDDPPEIPHATFKAMAYKEGTMLNCECKRGFRRIKSGSLYMLCTGNSSHSSWDNQCQCTSSATRNTTKQVTPQPEEQKERKTTEMQSPMQPVDQASLPGHCREPPPWENEATERIYHFVVGQMVYYQCVQGYRALHRGPAESVCKMTHGKTRWTQPQLICTGEMETSQFPGEEKPQASPEGRPESETSCLVTTTDFQIQTEMAATMETSIFTTEYQVAVAGCVFLLISVLLLSGLTWQRRQRKSRRTI | 24.6 ± 0.99 | 25.4 ± 1.9 | 4.53 ± 0.75 | 7.02 ± 0.61 | 
MAPLRPLLILALLAWVALADQESCKGRCTEGFNVDKKCQCDELCSYYQSCCTDYTAECKPQVTRGDVFTMPEDEYTVYDDGEEKNNATVHEQVGGPSLTSDLQAQSKGNPEQTPVLKPEEEAPAPEVGASKPEGIDSRPETLHPGRPQPPAEEELCSGKPFDAFTDLKNGSLFAFRGQYCYELDEKAVRPGYPKLIRDVWGIEGPIDAAFTRINCQGKTYLFKGSQYWRFEDGVLDPDYPRNISDGFDGIPDNVDAALALPAHSYSGRERVYFFKGKQYWEYQFQHQPSQEECEGSSLSAVFEHFAMMQRDSWEDIFELLFWGRTSAGTRQPQFISRDWHGVPGQVDAAMAGRIYISGMAPRPSLAKKQRFRHRNRKGYRSQRGHSRGRNQNSRRPSRATWLSLFSSEESNLGANNYDDYRMDWLVPATCEPIQSVFFFSGDKYYRVNLRTRRVDTVDPPYPRSIAQYWLGCPAPGHL | 25.1 ± 3.1 | 31.11 ± 0.19 | 5.37 ± 0.14 | 4.7 ± 1.1 | 
MESRGPLATSRLLLLLLLLLLRHTRQGWALRPVLPTQSAHDPPAVHLSNGPGQEPIAVMTFDLTKITKTSSSFEVRTWDPEGVIFYGDTNPKDDWFMLGLRDGRPEIQLHNHWAQLTVGAGPRLDDGRWHQVEVKMEGDSVLLEVDGEEVLRLRQVSGPLTSKRHPIMRIALGGLLFPASNLRLPLVPALDGCLRRDSWLDKQAEISASAPTSLRSCDVESNPGIFLPPGTQAEFNLRDIPQPHAEPWAFSLDLGLKQAAGSGHLLALGTPENPSWLSLHLQDQKVVLSSGSGPGLDLPLVLGLPLQLKLSMSRVVLSQGSKMKALALPPLGLAPLLNLWAKPQGRLFLGALPGEDSSTSFCLNGLWAQGQRLDVDQALNRSHEIWTHSCPQSPGNGTDASH |  |  |  |  | percentage of EdU-negative [1, 4]: 21.8 ± 3%; percentage of EdU-negative [1, 5]: 23.55 ± 0.15%; percentage of EdU-negative [2, 4]: 4.94 ± 0.58%; percentage of EdU-negative [2, 5]: 17.6 ± 1.6%
MALLFSLILAICTRPGFLASPSGVRLVGGLHRCEGRVEVEQKGQWGTVCDDGWDIKDVAVLCRELGCGAASGTPSGILYEPPAEKEQKVLIQSVSCTGTEDTLAQCEQEEVYDCSHDEDAGASCENPESSFSPVPEGVRLADGPGHCKGRVEVKHQNQWYTVCQTGWSLRAAKVVCRQLGCGRAVLTQKRCNKHAYGRKPIWLSQMSCSGREATLQDCPSGPWGKNTCNHDEDTWVECEDPFDLRLVGGDNLCSGRLEVLHKGVWGSVCDDNWGEKEDQVVCKQLGCGKSLSPSFRDRKCYGPGVGRIWLDNVRCSGEEQSLEQCQHRFWGFHDCTHQEDVAVICSG |  |  |  |  | percentage of EdU-negative [1, 6]: 24.9 ± 0.77%; percentage of EdU-negative [1, 7]: 27.1 ± 0.67%; percentage of EdU-negative [2, 6]: 5.21 ± 0.98%; percentage of EdU-negative [2, 7]: 5.51 ± 0.056%
MKAIIHLTLLALLSVNTATNQGNSADAVTTTETATSGPTVAAADTTETNFPETASTTANTPSFPTATSPAPPIISTHSSSTIPTPAPPIISTHSSSTIPIPTAADSESTTNVNSLATSDIITASSPNDGLITMVPSETQSNNEMSPTTEDNQSSGPPTGTALLETSTLNSTGPSNPCQDDPCADNSLCVKLHNTSFCLCLEGYYYNSSTCKKGKVFPGKISVTVSETFDPEEKHSMAYQDLHSEITSLFKDVFGTSVYGQTVILTVSTSLSPRSEMRADDKFVNVTIVTILAETTSDNEKTVTEKINKAIRSSSSNFLNYDLTLRCDYYGCNQTADDCLNGLACDCKSDLQRPNPQSPFCVASSLKCPDACNAQHKQCLIKKSGGAPECACVPGYQEDANGNCQKCAFGYSGLDCKDKFQLILTIVGTIAGIVILSMIIALIVTARSNNKTKHIEEENLIDEDFQNLKLRSTGFTNLGAEGSVFPKVRITASRDSQMQNPYSRHSSMPRPDY [Q9H3R2] |  |  |  |  | percentage of EdU-negative [1, 8]: 22.5 ± 1.3%; percentage of EdU-negative [1, 9]: 26.7 ± 0.67%; percentage of EdU-negative [2, 8]: 5.64 ± 0.33%; percentage of EdU-negative [2, 9]: 5.31 ± 0.37%
MKVLLCDLLLLSLFSSVFSSCQRDCLTCQEKLHPALDSFDLEVCILECEEKVFPSPLWTPCTKVMARSSWQLSPAAPEHVAAALYQPRASEMQHLRRMPRVRSLFQEQEEPEPGMEEAGEMEQKQLQKRFGGFTGARKSARKLANQKRFSEFMRQYLVLSMQSSQRRRTLHQNGNV |  |  |  |  | percentage of EdU-negative [1, 8]: 24.9 ± 0.7%; percentage of EdU-negative [1, 9]: 27.5 ± 0.28%; percentage of EdU-negative [2, 8]: 4.77 ± 0.15%; percentage of EdU-negative [2, 9]: 5.6 ± 0.068%
MNQVTIQWDAVIALYILFSWCHGGITNINCSGHIWVEPATIFKMGMNISIYCQAAIKNCQPRKLHFYKNGIKERFQITRINKTTARLWYKNFLEPHASMYCTAECPKHFQETLICGKDISSGYPPDIPDEVTCVIYEYSGNMTCTWNAGKLTYIDTKYVVHVKSLETEEEQQYLTSSYINISTDSLQGGKKYLVWVQAANALGMEESKQLQIHLDDIVIPSAAVISRAETINATVPKTIIYWDSQTTIEKVSCEMRYKATTNQTWNVKEFDTNFTYVQQSEFYLEPNIKYVFQVRCQETGKRYWQPWSSLFFHKTPETVPQVTSKAFQHDTWNSGLTVASISTGHLTSDNRGDIGLLLGMIVFAVMLSILSLIGIFNRSFRTGIKRRILLLIPKWLYEDIPNMKNSNVVKMLQENSELMNNNSSEQVLYVDPMITEIKEIFIPEHKPTDYKKENTGPLETRDYPQNSLFDNTTVVYIPDLNTGYKPQISNFLPEGSHLSNNNEITSLTLKPPVDSLDSGNNPRLQKHPNFAFSVSSVNSLSNTIFLGELSLILNQGECSSPDIQNSVEEETTMLLENDSPSETIPEQTLLPDEFVSCLGIVNEELPSINTYFPQNILESHFNRISLLEK [Q5VWK5] | 23.7 ± 1.1 | 29.2 ± 0.53 | 6.46 ± 1.6 | 15.8 ± 1.4 | 
MKENYCLQAALVCLGMLCHSHAFAPERRGHLRPSFHGHHEKGKEGQVLQRSKRGWVWNQFFVIEEYTGPDPVLVGRLHSDIDSGDGNIKYILSGEGAGTIFVIDDKSGNIHATKTLDREERAQYTLMAQAVDRDTNRPLEPPSEFIVKVQDINDNPPEFLHETYHANVPERSNVGTSVIQVTASDADDPTYGNSAKLVYSILEGQPYFSVEAQTGIIRTALPNMDREAKEEYHVVIQAKDMGGHMGGLSGTTKVTITLTDVNDNPPKFPQSVYQMSVSEAAVPGEEVGRVKAKDPDIGENGLVTYNIVDGDGMESFEITTDYETQEGVIKLKKPVDFETKRAYSLKVEAANVHIDPKFISNGPFKDTVTVKISVEDADEPPMFLAPSYIHEVQENAAAGTVVGRVHAKDPDAANSPIRYSIDRHTDLDRFFTINPEDGFIKTTKPLDREETAWLNITVFAAEIHNRHQEAKVPVAIRVLDVNDNAPKFAAPYEGFICESDQTKPLSNQPIVTISADDKDDTANGPRFIFSLPPEIIHNPNFTVRDNRDNTAGVYARRGGFSRQKQDLYLLPIVISDGGIPPMSSTNTLTIKVCGCDVNGALLSCNAEAYILNAGLSTGALIAILACIVILLVIVVLFVTLRRQKKEPLIVFEEEDVRENIITYDDEGGGEEDTEAFDIATLQNPDGINGFIPRKDIKPEYQYMPRPGLRPAPNSVDVDDFINTRIQEADNDPTAPPYDSIQIYGYEGRGSVAGSLSSLESATTDSDLDYDYLQNWGPRFKKLADLYGSKDTFDDDS | 25.4 ± 0.51 | 32.3 ± 2 | 5.18 ± 0.56 | 9.88 ± 1.5 | 
MLLKTVLLLGHVAQVLMLDNGLLQTPPMGWLAWERFRCNINCDEDPKNCISEQLFMEMADRMAQDGWRDMGYTYLNIDDCWIGGRDASGRLMPDPKRFPHGIPFLADYVHSLGLKLGIYADMGNFTCMGYPGTTLDKVVQDAQTFAEWKVDMLKLDGCFSTPEERAQGYPKMAAALNATGRPIAFSCSWPAYEGGLPPRVNYSLLADICNLWRNYDDIQDSWWSVLSILNWFVEHQDILQPVAGPGHWNDPDMLLIGNFGLSLEQSRAQMALWTVLAAPLLMSTDLRTISAQNMDILQNPLMIKINQDPLGIQGRRIHKEKSLIEVYMRPLSNKASALVFFSCRTDMPYRYHSSLGQLNFTGSVIYEAQDVYSGDIISGLRDETNFTVIINPSGVVMWYLYPIKNLEMSQQ |  |  |  |  | percentage of EdU-negative [1, 10]: 27.8 ± 0.95%; percentage of EdU-negative [1, 11]: 26.5 ± 1.4%; percentage of EdU-negative [2, 10]: 5.62 ± 0.13%; percentage of EdU-negative [2, 11]: 6.091 ± 0.044%
MGSRGQGLLLAYCLLLAFASGLVLSRVPHVQGEQQEWEGTEELPSPPDHAERAEEQHEKYRPSQDQGLPASRCLRCCDPGTSMYPATAVPQINITILKGEKGDRGDRGLQGKYGKTGSAGARGHTGPKGQKGSMGAPGERCKSHYAAFSVGRKKPMHSNHYYQTVIFDTEFVNLYDHFNMFTGKFYCYVPGLYFFSLNVHTWNQKETYLHIMKNEEEVVILFAQVGDRSIMQSQSLMLELREQDQVWVRLYKGERENAIFSEELDTYITFSGYLVKHATEP [Q9BXJ1] | 24.69 ± 0.17 | 23.7 ± 2.1 | 4.31 ± 0.1 | 4.49 ± 0.49 | 
MKSGLWYFFLFCLRIKVLTGEINGSANYEMFIFHNGGVQILCKYPDIVQQFKMQLLKGGQILCDLTKTKGSGNTVSIKSLKFCHSQLSNNSVSFFLYNLDHSHANYYFCNLSIFDPPPFKVTLTGGYLHIYESQLCCQLKFWLPIGCAAFVVVCILGCILICWLTKKKYSSSVHDPNGEYMFMRAVNTAKKSRLTDVTL [Q9Y6W8] |  |  |  |  | percentage of EdU-negative [1, 4]: 25.2 ± 1.7%; percentage of EdU-negative [1, 5]: 25.9 ± 0.78%; percentage of EdU-negative [2, 4]: 4.29 ± 0.34%; percentage of EdU-negative [2, 5]: 4.32 ± 0.26%
